# Test results taken from the supplement of paper PMC9170038.
# System: MS2 coat protein
# Assay: apparent KD of MS2 coat protein; designed switch direction (-1 OFF switch, 1 ON switch): 1; higher = weaker reporter binding
# Method in brief: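 Normalised cluster fluorescence was curve-fitted, and each design's median over clusters is its apparent KD. Before this, SNAP-549-labelled MS2 coat protein was titrated from 0.7 or 1.5 nM, doubling to 3 µM, over RNA switches transcribed on Illumina chips by stalled E. coli RNA polymerase. Titrations had no input, 200 uM small-molecule ligand, or an oligonucleotide input, and steps lasted 0.8–1.5 h (lowest) to 10–20 min (highest).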
# [1] = input ligand: microRNA oligo, concentration not stated
# [2] = Eterna round: R95, input ligand: FMN 200 uM
# [3] = Eterna round: R95, input ligand: microRNA oligo, concentration not stated
# [4] = Eterna round: R95, input ligand: none
Sequence,apparent KD of MS2 coat protein (input ligand: FMN 200 uM) [nM],apparent KD of MS2 coat protein [1] [nM],apparent KD of MS2 coat protein (input ligand: none) [nM],apparent KD of MS2 coat protein [2] [nM],apparent KD of MS2 coat protein [3] [nM],apparent KD of MS2 coat protein [4] [nM]
"AAAAGAAACAUGUACCUGAGUACAUGAAAACAUGAGGAUCACCCAUGUAACAAGCUGGGUGCUCGUCUUAUAAGAAA [JL pocket 1] (Eterna round: R96, puzzle: Sensor for hsa-mir-208a)",137,22.3,77.7,–,–,–
"AAAAGAAACAUGUACCUGAGUACAUGAAAACAUGAGGAUCACCCAUGUAACAAGUUGGGUGCUUGUCUUAUAAGAAA [JL pocket 4] (Eterna round: R96, puzzle: Sensor for hsa-mir-208a)",710,66.7,822,–,–,–
AAAAGACAUGAGGAUCACCCAUGUAACGGUCGUCAAGGAUAUGCAUAGGUCCAUUGACCAGCAGAAGGUGAUACCU [Xeanlarace] (puzzle: Same State 1),–,–,–,400,56.6,38.3
AAAAUACAUGAGGAUCACCCAUGUAGAAACUACACAGGAUAUCGGACGGCUAUAACCGAACGAGAAGGGUGAACCC [Onorvea] (puzzle: Same State 1),–,–,–,260,354,362
"AAAAUGAGUAUAUGAAAACAAGCUUUUUAACAUGAGGAUCACCCAUGUACUCGUCUUAUAAGCAGUCGAAAGACUGC [hsa-mir-208a sensor: 77] (Eterna round: R96, puzzle: Sensor for hsa-mir-208a)",94.8,17.2,96.6,–,–,–
"AAAAUGGUAUGUUACAUGAGGAUCACCCAUGUACUCUAAUCUGAGGAUAUGGGAAUGUAGAAGAACCAGAAGGCAGACAUCCAA [AK SSNG3-V2-22.1] (Eterna round: R96, puzzle: Same State NG 3)",149,70.2,86,–,–,–
"AAAAUGUGAUGUUACAUGAGGAUCACCCAUGUAGUGACAACUAAGGAUAUCUGAAAAAAAGGAGAGGAGAAGGUAGGAUCACAA [AK SSNG3-V2-16.1] (Eterna round: R96, puzzle: Same State NG 3)",25.7,26.4,33.2,–,–,–
"AAACACAGCAUAACGCUGUGACAUGAGGAUCACCCAUGUACACAGGAUAUCAUGGCAUAACGCCAUGAGAAGGGUGAUCAAGAC [Arxeerte] (Eterna round: R96, puzzle: Same State NG 3)",20.5,2.71,55.3,–,–,–
"AAACGGCCGAACGGAGGGCCACAUGAGGAUCACCCAUGUACAUAGGAUAUCACGCCAACGAAGCGUGAGAAGGGUGAUUAAAAC [Anriusxees] (Eterna round: R96, puzzle: Same State NG 3)",341,4.64,104,–,–,–
"AAAGAAAACAUAGGAUAUGUAACAUGAGGAUCACCCAUGUAUACCUCGUAAGAGAUGAUGGAUGGACAGAAGGAUGAUCUCAGG [Default title] (Eterna round: R96, puzzle: Same State NG 2)",–,111,–,–,–,–
"AAAGGAUGAUGUUACAUGAGGAUCACCCAUGUAGUGAUAACUAAGGAUAUCUGUUAAACAAGUUAAGAGAAGGUAGGAUCAUUA [AK SSNG3-V2-8] (Eterna round: R96, puzzle: Same State NG 3)",42.8,35.6,60.8,–,–,–
AAAGUACAUGAGGAUCACCCAUGUCCAAAGAAGUAAGGAUAUACGGAAAGAAAAGAAAAUGUAGAAGGUACAAGAA [Same State 1 #3] (puzzle: Same State 1),–,–,–,33,65.8,57.6
"AAAUAAAACACAGGAUAUGCAGUCAAAACGACGGCAGAAGGGUGAGACAUGAGGAUCACCCAUGUACACAUCCCACGGAUGUGC [Anonised] (Eterna round: R96, puzzle: Same State NG 1)",1060,546,1060,–,–,–
"AAAUUACUCCGAGGAUAUGCAUGGCUUUGUGCCGCAGAAGGUGGAUCGACGGACAUGAGGAUCACCCAUGUACACUGUCCUAUA [Gerite] (Eterna round: R96, puzzle: Same State NG 1)",26.4,34.7,46.9,–,–,–
AACAAUCUAUCUGAGGAUAUCAUGAAAUAAACAUGAGGAUCACCCAUGUGCAGGAAAACUGCAUAUGAGAAGGCAGAUAGAUUGU [salish99_ss2_r3_058] (puzzle: Same State 2),–,–,–,57.7,1020,1580
AACAAUCUAUCUGAGGAUAUCAUGAAAUAAACAUGAGGAUCACCCAUGUGCAGGAAAACUGCAUAUGAGAAGGCAGAUAGAUUUA [salish99_ss2_r3_057] (puzzle: Same State 2),–,–,–,43.8,638,1000
AACAAUCUAUCUGAGGAUAUCAUGAAAUAAACAUGAGGAUCACCCAUGUGCAGUAAAACUGCAUAUGAGAAGGCAGAUAGAUUGA [salish99_ss2_r3_039] (puzzle: Same State 2),–,–,–,93.3,1850,1820
